B1: 抗体 克隆号9A5D9 22G3 (antibody, V domains shown)
VH: EVQLVESGGGLVKPGGSLRLSCAASGFTFSSYSMNWVRQAPGKGLEWVSSISRSSSYIYYADSVMGRFTISRDNAKNSLYLQMNSLRADDTAVYYCARDRGSGNYYVDGLDIWGQGTMVTVSS
VL: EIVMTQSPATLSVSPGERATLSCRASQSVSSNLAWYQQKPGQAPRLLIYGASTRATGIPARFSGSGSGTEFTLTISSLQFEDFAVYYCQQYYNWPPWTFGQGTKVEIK
B2: 抗体 克隆号9A5F6 23F1 (antibody, V domains shown)
VH: QVQLVESGGGVVQPGRSLRLSCAASGFTFSSYAMYWVRQAPGKGLECVAGISYDGSNKYYADSVKGRFTISRENSKNTLYLQMNSLISEDTAVYYCARAEWDYWGQGTLVTVSS
VL: SYELTQPSSVSVSPGQTARITCSGDVLAKKYARWFQQKPGQAPVLVIYKDSERPSGIPERFSGSSSGTTVTLTISGAQVEDEADYYCYSAADNNLGVFGGGTKL
B3: 抗体 克隆号7D7G3D4 (antibody, V domains shown)
VH: EVQLVESGGGLVQPGGSLRLSCAASGLTVSSNHMSWVRQAPGKGLEWVSIIYSGGSTYYADSVKGRFTISRDNSKNTLYLQMDSLRAEDTTVYYCARAQGGWELPGAGYYYFNGMDFWGQGTTVTVSS
VL: DIQMTQSPSSLSASVGDRVTITCRASQSISTYLNWYQQKPGKAPKLLIYAASNLQSGVPSRFSGSASGTDFTLTISSLQPEDFATYFCQQSYSTSFTFGPGTKVDIK

In the assay the target is T1, 新型冠状病毒野生型Spike蛋白 (新型冠状病毒 (SARS-CoV-2) 野生型, UniProt P0DTC2 16-1213).
T1 construct: also called 野生型S蛋白
Briefly: ELISA, S protein coated at 2 μg/mL. (In general: In an ELISA, binding on a coated surface is turned into a signal by an enzyme label.)
On to B1, for which the binding result is given as “no binding (tested: 1 μg/mL)”.
With B2 the entry was “no binding (tested: 1 μg/mL)”; with B3, “no binding (tested: 1 μg/mL)”.

(Values after patent CN114349855A (BAISIS MEDICAL DIAGNOSIS SCIENCE AND TECH BEIJING LIMITED …, dated 2022).)
